B1: Harpin: Harpin protein, isolated from Erwinia amylovora (products known as Messenger, ProAct, Employ) (protein, UniProt Q01099 1-403, looked up)
Harpin HrpN: MSLNTSGLGASTMQISIGGAGGNNGLLGTSRQNAGLGGNSALGLGGGNQNDTVNQLAGLLTGMMMMMSMMGGGGLMGGGLGGGLGNGLGGSGGLGEGLSNALNDMLGGSLNTLGSKGGNNTTSTTNSPLDQALGINSTSQNDDSTSGTDSTSDSSDPMQQLLKMFSEIMQSLFGDGQDGTQGSSSGGKQPTEGEQNAYKKGVTDALSGLMGNGLSQLLGNGGLGGGQGGNAGTGLDGSSLGGKGLQNLSGPVDYQQLGNAVGTGIGMKAGIQALNDIGTHSDSSTRSFVNKGDRAMAKEIGQFMDQYPEVFGKPQYQKGPGQEVKTDDKSWAKALSKPDDDGMTPASMEQFNKAKGMIKSAMAGDTGNGNLQARGAGGSSLGIDAMMAGDAINNMALGKLGAA

Assays:
Type in all cases: in vivo
[1] = tested on: mustard beetle larvae (Phaedon cochleariae); assay: Phaedon cochleariae larvae - spray application (Example 1); settings: 48 h, read-out: Mortality in % after 2d
Procedure: (§1) Solvent: 78.0 parts by weight of acetone
(§2) • 1.5 parts by weight of dimethylformamide Emulsifier: 0.5 parts by weight of alkylaryl polyglycolether
(§3) To produce a suitable preparation of active compound, 1 part by weight of active compound is mixed with the stated amount of solvent and emulsifier, and the concentrate is diluted with emulsifier-containing water to the desired concentration. The preparation of bacteria, fungi or yeast products contains 10^9-10^10 spores/g or cells/g, the preparation of the virus 10^13 particles/1. To produce a suitable preparation of a biological suspension the cells, viruses or spores are diluted with emulsifier-containing water to the desired concentration.
Chinese cabbage (Brassica pekinensis) leaf-discs are sprayed with a preparation of the active ingredient of the desired concentration. Once dry, the leaf discs are infested with mustard beetle larvae (Phaedon cochleariae).
After the specified period of time, mortality in % is determined. 100% means that all the beetle larvae have been killed; 0% means that none of the beetle larvae have been killed. The mortality values thus determined are recalculated using the Colby-formula.

[2] = tested on: fall armyworm larvae (Spodoptera frugiperda); assay: Spodoptera frugiperda - spray application (Example 2); settings: 1.5 g ai/ha
Procedure: as §1, §2
as §3, with “preparation of the bacteria, fungi” for “preparation of bacteria, fungi”
Corn (Zea mais) leaf-discs are sprayed with a preparation of the active ingredient of the desired concentration. Once dry, the leaf discs are infested with fall armyworm larvae (Spodoptera frugiperda).
After the specified period of time, mortality in % is determined. 100% means that all the caterpillars have been killed; 0% means that none of the caterpillars have been killed. The mortality values thus determined are recalculated using the Colby-formula.

[3] = tested on: two spotted spider mite (Tetranychus urticae); assay: Tetranychus urticae test (OP-resistant, spray application) (Example 3); settings: 1.5 g ai/ha
Procedure: Solvent: 78 parts by weight acetone
• 1.5 parts by weight dimethylformamide Wetting agent: 0.5 parts by weight alkylarylpolyglcolether
as §3, with “preparation of the bacteria, fungi” for “preparation of bacteria, fungi”, “spores/g or cells/g. To produce” for “spores/g or cells/g, the preparation of the virus 10^13 particles/1. To produce”
French beans (Phaseolus vulgaris) infected with all developmental stages of the two spotted spider mite (Tetranychus urticae), are sprayed with a preparation of the active ingredient at the desired dose rates.
After the specified period of time, activity in % is determined Thus 100% means that all spider mites have been killed and 0% means that none of the spider mites have been killed. The mortality values determined thus are recalculated using the Colby-formula (see sheet 1).

Molecule | mortality at 1000 g/ha [1] [%] | Mortality in % after 2d [2] [%] | Mortality in % after 6d [3] [%]
Cc1ccc(C(C)C)c(O)c1 [Thymol] | 0 | – | –
B1 | – | 0 | 0

— patent US9572342B2, “Use of an anthranilic diamide derivatives with heteroaromatic and heterocyclic substituents in combination with a biologicalcontrol agent” (BAYER INTELLECTUAL PROPERTY GMBH, priority 2011, dated 2017)
